Results on 26 sequences are retold here after the supplement of paper PMC9732359.

The data set is described as follows: protein stability index of a GFP-peptide fusion (yeast GPS) (PSI 1-4); higher = more stable; sorted into four equal gates, so the index is relative within each strain. Summed up: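 Tiled yeast protein peptides of 17 residues were each joined downstream of GFP, on plasmids that also express Cherry. The pooled library was maintained in yeast, and mid-log cultures in leucine-free medium were sorted into four equal gates on the GFP/Cherry ratio. Plasmids from every gate were amplified by PCR and sequenced on Illumina, with barcodes linking reads to strains. The protein stability index of a peptide is its gate-number-weighted read frequency summed over the gates.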

± gives the uncertainty stated by the source.

Take TGTARLNSMPNNVNEYS [YJL039C/NUP192]: the protein stability index was determined as 2.82 ± 0.1 (doa10∆), 2.74 ± 0.085 (pdr5∆), 3.01 ± 0.052 (san1∆) and 2.89 ± 0.056 (ubr1∆).
For QQKANLLSSSNFEATKK [COR1], the protein stability index (doa10∆) is 2.27 ± 0.069, the protein stability index (pdr5∆) was found to be 2.5 ± 0.075, the protein stability index (san1∆) turned out to be 2.1 ± 0.086 and the protein stability index (ubr1∆) was 1.91 ± 0.05.
EISRLKTSLSIKVENLN [SMC2]: the protein stability index reads like this: (doa10∆) 2.76 ± 0.077; (pdr5∆) 2.55 ± 0.13; (san1∆) 2.39 ± 0.17; (ubr1∆) 2.56 ± 0.064.
Regarding IWRKVPGDVLDKDAFIP [SNU114], the protein stability index (doa10∆) is 3.6 ± 0.28.
For the sequence FATNEERQMNFLTNELI [SWI3], the protein stability index amounted to 3.28 ± 0.1 (doa10∆), 2.32 ± 0.07 (pdr5∆), 1.96 ± 0.14 (san1∆) and 2.62 ± 0.053 (ubr1∆).
Taken in the same sequence, the figures for LDALVDCENFFNYVQEC [YJL039C/NUP192] were 3.37 ± 0.12, 3.43 ± 0.084, 3.44 ± 0.079 and 3.41 ± 0.065.
Turning to EEDVYLDPLARVSKDKK [FAS2], the protein stability index (doa10∆) amounted to 3.5 ± 0.11, the protein stability index (pdr5∆) is 3.29 ± 0.11, the protein stability index (san1∆) amounted to 3.46 ± 0.069 and the protein stability index (ubr1∆) worked out at 3.47 ± 0.061.
In the case of VTPEDVMTISSLEQRTL [RPC82], the protein stability index came out at 3.2 ± 0.084 (doa10∆), 3.1 ± 0.076 (pdr5∆), 3.06 ± 0.061 (san1∆) and 3.25 ± 0.073 (ubr1∆).
ETKTKKEKIKGLQDEIM [SMC4]: the protein stability index was found to be 3.12 ± 0.11 (doa10∆), 3.32 ± 0.13 (pdr5∆), 3.13 ± 0.06 (san1∆) and 3.38 ± 0.068 (ubr1∆).
Take NLATWYHSAGGRDKHAL [SSN3]: the protein stability index is, setting by setting: (doa10∆) 3.49 ± 0.17; (pdr5∆) 3.54 ± 0.15; (san1∆) 3.16 ± 0.11; (ubr1∆) 3.42 ± 0.08.
Regarding SKRYIPSVNDFVIGVII [RRP40], the protein stability index stood at 2.4 ± 0.054 (doa10∆), 2.66 ± 0.056 (pdr5∆), 2.17 ± 0.078 (san1∆) and 2.73 ± 0.054 (ubr1∆).
In turn, SKQDLIHSLIPVAKWFV [SIN4] displayed a protein stability index (doa10∆) of 2.4 ± 0.076, a protein stability index (pdr5∆) of 2.99 ± 0.054, a protein stability index (san1∆) of 2.9 ± 0.061 and a protein stability index (ubr1∆) of 2.78 ± 0.08.
Taken in the same sequence, the figures for NSSNYAELFNNDIKLFV [PRP8] were 2.44 ± 0.041, 2.48 ± 0.036, 2.26 ± 0.048 and 2.27 ± 0.029.
Consider QKVSQLESADKQLEKRD [POP4], for which the protein stability index runs as follows: (doa10∆) 3.26 ± 0.069; (pdr5∆) 3.35 ± 0.083; (san1∆) 3.27 ± 0.07; (ubr1∆) 3.35 ± 0.077.
Taken in the same sequence, the figures for PNIFPNLTYYNEKLECI [ITC1] were 2.6 ± 0.07, 2.58 ± 0.067, 2.59 ± 0.056 and 2.68 ± 0.05.
Consider VTVVDTPPVVVVGVVGY [RPL3], for which the protein stability index is 1.17 ± 0.051 (doa10∆), 1.41 ± 0.061 (pdr5∆), 1.26 ± 0.065 (san1∆) and 1.39 ± 0.048 (ubr1∆).
Take LGTVQREIESLIAEETN [SMC3]: the protein stability index came out at 2.79 ± 0.18 (doa10∆), 2.83 ± 0.082 (pdr5∆), 3.01 ± 0.12 (san1∆) and 2.91 ± 0.15 (ubr1∆).
As to LHKNFESENFKIIALQP [RGR1], the protein stability index is 2.56 ± 0.076 (doa10∆), 2.62 ± 0.078 (pdr5∆), 2.7 ± 0.06 (san1∆) and 2.58 ± 0.073 (ubr1∆).
Consider TRALQISMNAPVFVDLE [RPO26], for which the protein stability index (ubr1∆) was determined as 3 ± 0.19.
As to LTLTDSQLAQVAAFVNN [BRR2], the protein stability index by setting is: (doa10∆) 2.14 ± 0.084; (pdr5∆) 2.18 ± 0.099; (san1∆) 2.37 ± 0.15; (ubr1∆) 2.69 ± 0.061.
The matching figures for TETFEKPQRTNTLRMKH [RPB2]: 3.05 ± 0.16, 3.21 ± 0.14, 3.16 ± 0.1 and 3.05 ± 0.12.
Turning to SKRWAQRTLSKSFYSTA [CYT1], the protein stability index runs as follows: (doa10∆) 1.69 ± 0.052; (pdr5∆) 2.32 ± 0.054; (san1∆) 2.19 ± 0.063; (ubr1∆) 2.22 ± 0.06.
Taken in the same sequence, the figures for GAKVKTMRRQKLTILQE [RET1] were 1.43 ± 0.088, 2.35 ± 0.06, 2.05 ± 0.14 and 2.22 ± 0.086.
Sequence KLLTPQDMEAAKEVYKI [GAL11] came in with a protein stability index (doa10∆) of 3.13 ± 0.14, a protein stability index (pdr5∆) of 3.33 ± 0.14, a protein stability index (san1∆) of 3.43 ± 0.084 and a protein stability index (ubr1∆) of 3.49 ± 0.11.
Taken in the same sequence, the figures for RKRAHSLVSTQSSSSTR [REC8] were 2.86 ± 0.069, 2.94 ± 0.068, 2.77 ± 0.051 and 2.92 ± 0.068.
For IALLTLKESVEGEFNGD [PRE8], the protein stability index is, setting by setting: (doa10∆) 2.77 ± 0.21; (pdr5∆) 2.77 ± 0.17; (san1∆) 2.64 ± 0.15; (ubr1∆) 2.75 ± 0.11.
